The text below walks through data of PMC4141790, “RecA Protein Plays a Role in the Chemotactic Response and Chemoreceptor Clustering of Salmonella enterica” (PLoS ONE, 2014).

The chains are these.
B1: CheW coupling protein fused to a β-galactosidase truncation (ΔαCheW / ΔωCheW) (natural protein)
chain: MTGMSNVSKLAGEPSGQEFLVFTLGNEEYGIDILKVQEIRGYDQVTRIANTPAFIKGVTNLRGVIVPIVDLRVKFCEGDVEYDDNTVVIVLNLGQRVVGIVVDGVSDVLSLTAEQIRPAPEFAVTLSTEYLTGLGALGERMLILVNIEKLLNSEEMALLDIAASHVA
notes: CheW coupling protein, S. enterica sv; Typhimurium; the cheW gene was PCR-amplified and cloned (SphI/BamHI) into both pB2HΔα and pB2HΔω; One molecule for both fusions (Δα and Δω), since each protein stood in both positions of the two-hybrid system; also called Δα-cheW fusion; Δω-cheW fusion; source: two-hybrid fusion, co-expressed in E. coli MC1061 (pB2HΔα / pB2HΔω derivatives, 20 nM IPTG)
B2: RecA protein fused to a β-galactosidase truncation (ΔαRecA / ΔωRecA) (natural protein)
chain: MAIDENKQKALAAALGQIEKQFGKGSIMRLGEDRSMDVETISTGSLSLDIALGAGGLPMGRIVEIYGPESSGKTTLTLQVIAAAQREGKTCAFIDAEHALDPVYARKLGVDIDNLLCSQPDTGEQALEICDALARSGAVDVIVVDSVAALTPKAEIEGEIGDSHMGLAARMMSQAMRKLAGNLKQSNTLLIFINQIRMKIGVMFGNPETTTGGNALKFYASVRLDIRRIGAVKEGDNVVGSETRVKVVKNKIAAPFKQAEFQILYGEGINFYGELVDLGVKEKLIEKAGAWYSYNGEKIGQGKANATTWLKENPATAKEIEKRVRELLLSNQNATPDFAVDDSEGVAETNEDF
notes: RecA, S. enterica sv; Typhimurium; the recA gene was PCR-amplified and cloned (SphI/BamHI) into both pB2HΔα and pB2HΔω; One molecule for both fusions (Δα and Δω), since each protein stood in both positions of the two-hybrid system; also called Δα-recA fusion; Δω-recA fusion; source: two-hybrid fusion, co-expressed in E. coli MC1061 (pB2HΔα / pB2HΔω derivatives, 20 nM IPTG)

The target of experiment [1] is B2. The experiment in a line: two-hybrid; β-galactosidase Δα/Δω complementation (pB2HΔα/pB2HΔω) in E. coli MC1061; 37°C, samples 5 h after 20 nM IPTG; activity relative to the non-interaction control strain expressing ΔαAmyA and ΔωDnaE. The settings on record: partners not purified.
The target in experiment [2] is B1. The experiment is described as above. The settings on record: partners not purified.

For the molecule B1, the “relative β-galactosidase expression” value in experiment [1] is > 7 relative to the non-interaction control strain.

With B2, the “relative β-galactosidase expression” value in experiment [2] was > 7 relative to the non-interaction control strain.
